Measured values published in publication PMC7232488.

Columns and labels:
[1] = target: Gag (Human immunodeficiency virus 1) (UniProt O93182); details: cited from earlier work
[2] = test system: Δ1 SP1 Gag (HIV-1 (isolate BH10)); experiment: MST
[3] = test system: WM Gag (HIV-1 (isolate BH10)); experiment: MST

Sequence of Gag (O93182 2-500): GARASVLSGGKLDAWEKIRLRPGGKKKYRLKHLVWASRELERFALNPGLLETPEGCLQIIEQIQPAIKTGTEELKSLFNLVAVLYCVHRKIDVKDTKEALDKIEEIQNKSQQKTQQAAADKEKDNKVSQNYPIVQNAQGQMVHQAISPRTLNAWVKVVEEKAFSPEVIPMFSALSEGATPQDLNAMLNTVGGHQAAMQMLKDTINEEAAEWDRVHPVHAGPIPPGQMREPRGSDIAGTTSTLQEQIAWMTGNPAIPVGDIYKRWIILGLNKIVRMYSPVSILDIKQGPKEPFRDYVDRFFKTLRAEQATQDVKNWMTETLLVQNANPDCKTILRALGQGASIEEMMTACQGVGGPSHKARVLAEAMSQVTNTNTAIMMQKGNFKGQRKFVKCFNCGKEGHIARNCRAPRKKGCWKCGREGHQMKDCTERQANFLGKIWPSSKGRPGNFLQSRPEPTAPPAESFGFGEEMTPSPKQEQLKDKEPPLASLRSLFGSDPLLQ

| Substance | Kd [1] | binding signal (fold difference vs WT Gag) [2] | binding signal (fold decrease in affinity vs WT Gag) [3] |
| --- | --- | --- | --- |
| Gag (from UniProt O93182) | 5.5 µM |  |  |
| reverse complement RNA (non-Ψ control) |  | 2 |  |
| Ψ RNA |  | 2 | 3.5 |
